From patent US20140315215A1 (SECRETARY OF STATE FOR HEALTH, published 2014)

Target: T1, hen egg lysozyme (hen, UniProt P00698 19-147)
T1 construct: Antigen immobilised on the microtitre plate in all ELISAs; also called HEL
Assay: ELISA on immobilised HEL, tAK activity read-out; fusion extracted with glutathione and heat treated, compared with the BSA control
Experimental: FIG. 1 illustrates functional recovery of correctly folded single-domain antibody (VNAR) in the presence of the Sac tAK domain and glutathione. The fusion proteins were assessed for their ability to bind to hen egg lysozyme immobilized onto a microtitre plate in an ELISA format, using the tAK activity as the assay read-out. In each case background binding was measured using BSA as a non-relevant antigen control. In the case of Tma tAK fusions, no significant increase in binding was observed above the background binding to BSA with either glutathione extraction, heat treatment or a combination of the two.

T1 sequence (P00698 19-147): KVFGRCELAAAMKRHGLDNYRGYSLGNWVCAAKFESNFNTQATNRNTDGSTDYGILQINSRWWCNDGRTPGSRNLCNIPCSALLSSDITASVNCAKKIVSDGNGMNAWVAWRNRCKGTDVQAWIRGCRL

B1: SacAK-F3-VNAR fusion protein (Sulfolobus acidocaldarius adenylate kinase, [GGGGS]3 flexible linker F3, hen egg lysozyme specific shark VNAR) (VNAR)
chain: MLATALKLGYAKDRDEMRKLSVEKQKKLQIDAAKGIAEEARAGGEGYLFIDTHAVIRTPSGYLPGLPSYVITEINPSVIFLLEADPKIILSRQKRDTTRNRNDYSDESVILETINFARYAATASAVLAGSTVKVIVNVEGDPSIAANEIIRSMKQSTGGGGSGGGGSGGGGSGSARVDQTPRSVTKETGESLTINCVLRDASYALGSTCWYRKKSGSTNEESISKGGRYVETVNSGSKSFSLRINDLTVEDGGTYRCGLGVAGGYCDYALCSSRYAECGDGTAVTVN
notes: also called Sac tAK fusions; the fusion
fold increase in binding: ~10 fold
